From publication PMC6088750

Substrate: O=S(O)(O)=S
Assay: thiosulfate sulfurtransferase initial rates, Michaelis-Menten fit
Type: biochemical, Enterococcus faecalis
Settings: RHD domain activity; minimal TST activity

B1: Ef CDR-RHD / CoA persulfide reductase (CoAPR) (Enterococcus faecalis OG1RF) (protein)
chain: MKIVIIGGVAGGMSAATRLRRLMEDAEIVVMEKGPFVSFANCGLPYYVSGEIAEREQLLVQTPEALKARFNLDVRPHHEVVAIDPIEKVITVKHETEILTEHYDKLILSPGAKPFVPPITGLAEAKNVFSLRNVPDLDQIMTALTPETKRAVVIGAGFIGLEMAENLQKRGLEVTLVEKAPHVLPPLDEEMAAFVKAELSKNNVQVITGQSAVAFEEEGQVIRLEDGQTLASDLTILSVGVQPENTLAVEAGVATGLRGGIVVDEHYQTNQPDIYAVGDAIVVKQQITQEDALISLASPANRQGRQVADVIAGLERKNQGSIGTAIVRVFDLTAASTGLSERAAKAAGLTTAVVHISGKDHAGYYPGATDLQLKLVFHPTTGEIYGAQGIGAKGVDKRIDILATAIKGQLTIFDLPELEFTYAPPFGSAKDPVNMLGYAAMNLVEGLSENVQWYELSNELAKGAVLLDVRNPAERANGQFKNAVSIPLNELRERLEELDKSTEYIVSCHSGLRSYIAERMLKQAGISAKNLDGAFALYRMVKPEELENV
  Km: 1000 ± 600 µM
